Source: paper PMC10872949
Where two headings read alike, the source gives them in different places.

Legend:
Assay in all cases: enzyme inhibition assay
[1] = target: Recombinant human cathepsin S (human) (UniProt P25774)
[2] = target: Recombinant human cathepsin L (human) (UniProt P07711)
[3] = target: Recombinant human cathepsin S (human) (UniProt P25774); remark: listed apart in the source

Sequence of UniProt P25774 (P25774 17-331): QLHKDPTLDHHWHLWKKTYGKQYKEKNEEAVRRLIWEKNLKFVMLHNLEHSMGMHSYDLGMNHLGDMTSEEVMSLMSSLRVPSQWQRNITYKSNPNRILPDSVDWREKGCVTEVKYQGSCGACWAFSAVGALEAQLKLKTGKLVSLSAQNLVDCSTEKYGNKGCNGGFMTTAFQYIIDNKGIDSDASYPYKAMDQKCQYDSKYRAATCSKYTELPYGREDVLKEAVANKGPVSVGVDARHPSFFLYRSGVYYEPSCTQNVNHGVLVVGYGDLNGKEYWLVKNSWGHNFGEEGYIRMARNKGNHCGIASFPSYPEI
Sequence of UniProt P07711 (P07711 18-333): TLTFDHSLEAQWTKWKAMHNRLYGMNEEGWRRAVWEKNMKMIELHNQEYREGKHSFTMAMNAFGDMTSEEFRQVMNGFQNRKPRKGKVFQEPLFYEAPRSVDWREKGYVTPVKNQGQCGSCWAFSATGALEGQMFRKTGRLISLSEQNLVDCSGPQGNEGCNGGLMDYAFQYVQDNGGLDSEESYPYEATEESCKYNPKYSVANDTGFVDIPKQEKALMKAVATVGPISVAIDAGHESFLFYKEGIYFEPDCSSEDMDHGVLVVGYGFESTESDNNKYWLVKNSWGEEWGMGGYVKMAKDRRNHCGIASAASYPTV

Question: How did the Ki [1] turn out when “Her-HC-CTSSpp IgG (from UniProt P25774 17-113) (antibody)” was run?
Answer: Its Ki is 6.03 nM.

Question: And the Ki [2]?
Answer: Its Ki is 49.3 nM.

Question: How did the Ki [1] turn out when “Syn-LC-CTSSpp Fab (from UniProt P25774 17-113)” was run?
Answer: Its Ki is 2.12 nM.

Question: And the Ki [2]?
Answer: The Ki was 24.5 nM.

Question: And the Ki [3]?
Answer: The Ki was 2.21 nM.
